Reference: publication PMC4941050, “Extra-coding RNAs regulate neuronal DNA methylation dynamics”

Assays:
[1] = biological target: DNMT3a (in DNMT3a/DNMT3l complex);DNMT3l (human;human, UniProt Q9Y6K1;Q9UJW3 1-912;1-386, |); test: EMSA; 0.2 uM protein; 20 mM HEPES, 40 mM KCl, 1 mM EDTA, 0.2 mM DTT, 0.1 mg/ml BSA, 0.1% Tween-20, 20% glycerol; pH not stated; 1 h at 37 C; 1 nM probe; native 4-20% PAGE
DNMT3a-CD [2] = biological target: T1, DNMT3a-CD (mouse, UniProt O88508 608-908); test: EMSA; 0.2 uM protein; complete binding; 20 mM HEPES, 40 mM KCl, 1 mM EDTA, 0.2 mM DTT, 0.1 mg/ml BSA, 0.1% Tween-20, 20% glycerol; pH not stated; 1 h at 37 C; 1 nM probe; native 4-20% PAGE; settings: protein: recombinant; label: 5'-Cy5.5; predicted stem-loop
T1 sequence (O88508 608-908): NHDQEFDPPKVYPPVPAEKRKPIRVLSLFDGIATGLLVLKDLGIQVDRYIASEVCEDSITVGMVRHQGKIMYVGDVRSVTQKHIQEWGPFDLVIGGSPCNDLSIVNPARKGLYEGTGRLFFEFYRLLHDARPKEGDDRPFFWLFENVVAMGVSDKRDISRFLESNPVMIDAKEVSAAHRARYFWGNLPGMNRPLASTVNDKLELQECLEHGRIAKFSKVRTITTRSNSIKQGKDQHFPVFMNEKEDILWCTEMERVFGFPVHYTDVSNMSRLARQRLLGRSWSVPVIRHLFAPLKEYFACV

DNMT3a-CD [3] = biological target: T1, DNMT3a-CD; test: competition EMSA; vs 1 nM Cy5.5-ecRNA-1; competitor 1-100 nM; 20 mM HEPES, 40 mM KCl, 1 mM EDTA, 0.2 mM DTT, 0.1 mg/ml BSA, 0.1% Tween-20, 20% glycerol; pH not stated; 1 h at 37 C; 1 nM probe; native 4-20% PAGE; settings: protein: recombinant; chain copies: 2; blunt
DNMT3a-CD [4] = biological target: T1, DNMT3a-CD; test: EMSA; DNMT3a-CD 0.002-0.2 uM; value only in figure, text: low nanomolar, same as dsDNA (P=0.49); 20 mM HEPES, 40 mM KCl, 1 mM EDTA, 0.2 mM DTT, 0.1 mg/ml BSA, 0.1% Tween-20, 20% glycerol; pH not stated; 1 h at 37 C; 1 nM probe; native 4-20% PAGE; settings: protein: recombinant; label: 5'-Cy5.5; predicted stem-loop
DNMT3a-CD [5] = biological target: T1, DNMT3a-CD; test: EMSA; binding not altered; 20 mM HEPES, 40 mM KCl, 1 mM EDTA, 0.2 mM DTT, 0.1 mg/ml BSA, 0.1% Tween-20, 20% glycerol; pH not stated; 1 h at 37 C; 1 nM probe; native 4-20% PAGE; settings: protein: recombinant; label: 5'-Cy5.5; unstructured (predicted)
DNMT3a-CD [6] = biological target: T1, DNMT3a-CD; test: EMSA; binding not impaired; 20 mM HEPES, 40 mM KCl, 1 mM EDTA, 0.2 mM DTT, 0.1 mg/ml BSA, 0.1% Tween-20, 20% glycerol; pH not stated; 1 h at 37 C; 1 nM probe; native 4-20% PAGE; settings: protein: recombinant; label: 5'-Cy5.5; unstructured (predicted)

Chain of DNMT3a (in DNMT3a/DNMT3l complex);DNMT3l (Q9Y6K1 whole entry, chain 1 of 2): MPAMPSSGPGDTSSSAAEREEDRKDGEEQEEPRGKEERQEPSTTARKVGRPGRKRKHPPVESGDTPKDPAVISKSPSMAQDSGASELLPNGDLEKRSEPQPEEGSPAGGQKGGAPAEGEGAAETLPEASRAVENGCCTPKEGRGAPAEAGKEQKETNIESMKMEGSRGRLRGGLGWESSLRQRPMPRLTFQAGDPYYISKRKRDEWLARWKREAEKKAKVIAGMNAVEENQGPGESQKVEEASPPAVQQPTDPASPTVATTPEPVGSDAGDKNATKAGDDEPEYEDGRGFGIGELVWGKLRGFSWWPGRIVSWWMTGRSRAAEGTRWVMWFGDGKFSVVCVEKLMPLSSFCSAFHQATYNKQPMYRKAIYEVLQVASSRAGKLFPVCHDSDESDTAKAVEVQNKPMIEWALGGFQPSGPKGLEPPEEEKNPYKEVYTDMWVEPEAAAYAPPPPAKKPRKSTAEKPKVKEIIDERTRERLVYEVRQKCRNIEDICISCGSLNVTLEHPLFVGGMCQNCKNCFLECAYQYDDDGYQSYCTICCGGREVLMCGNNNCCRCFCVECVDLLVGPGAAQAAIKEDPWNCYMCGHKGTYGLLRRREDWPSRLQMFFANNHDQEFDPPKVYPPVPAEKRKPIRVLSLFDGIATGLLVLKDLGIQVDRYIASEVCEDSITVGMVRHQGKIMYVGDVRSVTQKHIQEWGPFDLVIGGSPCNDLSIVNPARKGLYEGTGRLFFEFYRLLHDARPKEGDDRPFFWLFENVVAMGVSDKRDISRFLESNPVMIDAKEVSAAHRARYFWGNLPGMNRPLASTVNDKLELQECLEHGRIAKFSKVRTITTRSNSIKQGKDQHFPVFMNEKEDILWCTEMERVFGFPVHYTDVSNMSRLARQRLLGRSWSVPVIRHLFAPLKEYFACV
Chain of DNMT3a (in DNMT3a/DNMT3l complex);DNMT3l (Q9UJW3 whole entry, chain 2 of 2): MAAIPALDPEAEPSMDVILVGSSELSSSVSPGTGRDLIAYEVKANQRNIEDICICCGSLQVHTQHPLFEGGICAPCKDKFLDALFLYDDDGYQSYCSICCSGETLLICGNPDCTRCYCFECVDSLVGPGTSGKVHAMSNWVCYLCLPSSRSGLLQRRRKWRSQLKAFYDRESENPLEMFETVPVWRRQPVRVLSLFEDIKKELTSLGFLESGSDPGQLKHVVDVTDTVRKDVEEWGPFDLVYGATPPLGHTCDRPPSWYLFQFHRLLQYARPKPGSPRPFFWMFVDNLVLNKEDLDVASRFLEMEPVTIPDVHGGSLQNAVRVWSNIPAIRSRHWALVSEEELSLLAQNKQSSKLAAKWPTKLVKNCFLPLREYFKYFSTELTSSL

GUCUGUGCACCGUGUGCAUAUACAG (ssRNA) [ecRNA-2]
binding result [1]: binds | binding result (DNMT3a-CD [2]): binds

B1: ecDNA-1 unlabelled competitor (dsDNA)
DNA 1: GGGGACACGCCCTCTGTTCCCTTAT
DNA 2: ATAAGGGAACAGAGGGCGTGTCCCC
IC50 (DNMT3a-CD [3]): > 20 fold excess over 1 nM ecRNA-1

GGGGACACGCCCUCUGUUCCCUUAU (ssRNA) [ecRNA-1]
binding result [1]: binds | binding result (DNMT3a-CD [4]): binds

GAUGAUCCUGCCUUGAAGUGACGCU (ssRNA) [mutant ecRNA-2]
binding result (DNMT3a-CD [5]): binds

GUCGACACGCCCUCUGUUCCGUUAG (ssRNA) [mutant ecRNA-1]
binding result (DNMT3a-CD [6]): binds
